Results published in patent publication US20230002480A1.

How the values were obtained:
Assay in all cases: cell-based or functional assay
[1] = biological target: HIV-1 Env pseudovirus 231966.c02 (HIV-1)
[2] = biological target: HIV-1 Env pseudovirus 3301.v1.c24 (HIV-1)
[3] = biological target: HIV-1 Env pseudovirus 6545.v4.c1 (HIV-1)
[4] = biological target: HIV-1 Env pseudovirus 6811.v7.c18 (HIV-1)
[5] = biological target: HIV-1 Env pseudovirus A07412M1.vrc12 (HIV-1)
[6] = biological target: HIV-1 Env pseudovirus BJOX028000.10.3 (HIV-1)
[7] = biological target: HIV-1 Env pseudovirus R3265.c06 (HIV-1)
[8] = biological target: HIV-1 Env pseudovirus T278-50 (HIV-1)
[9] = biological target: HIV-1 Env of pseudovirus 6244_13_B5_4576 (clade B (T/F)) (HIV-1)
[10] = biological target: HIV-1 Env of pseudovirus CAP210.2.00.E8 (clade C) (HIV-1)
[11] = biological target: HIV-1 Env of pseudovirus CAP45.2.00.G3 (clade C) (HIV-1)
[12] = biological target: HIV-1 Env of pseudovirus CNE52 (clade BC) (HIV-1)
[13] = biological target: HIV-1 Env of pseudovirus CNE53 (clade BC) (HIV-1)
[14] = biological target: HIV-1 Env of pseudovirus Ce0393_C3 (clade C (T/F)) (HIV-1)
[15] = biological target: HIV-1 Env of pseudovirus Ce1172_H1 (clade C (T/F)) (HIV-1)
[16] = biological target: HIV-1 Env of pseudovirus Ce2010_F5 (clade C (T/F)) (HIV-1)
[17] = biological target: HIV-1 Env of pseudovirus Ce703010054_2A2 (clade C (T/F)) (HIV-1)
[18] = biological target: HIV-1 Env of pseudovirus Du172.17 (clade C) (HIV-1)
[19] = biological target: HIV-1 Env of pseudovirus SC422661.8 (clade B) (HIV-1)
[20] = biological target: HIV-1 Env of pseudovirus THRO4156.18 (clade B) (HIV-1)
[21] = biological target: HIV-1 Env of pseudovirus ZM214M.PL15 (clade C) (HIV-1)
[22] = biological target: HIV-1 Env of pseudovirus ZM247v1(Rev-) (clade C (T/F)) (HIV-1)
[23] = biological target: HIV-1 Env of pseudovirus ZM53M.PB12 (clade C) (HIV-1)

In the case of N49P19 (antibody), the IC50 [1] is reported as 0.653 µg/mL, the IC80 [1] is reported as 4.55 µg/mL and the MPI [1] is reported as 100. It also gave an IC50 [2] of 0.302 µg/mL, an IC80 [2] of 1.42 µg/mL and an MPI [2] of 98. It also gave an IC50 [3] greater than 50 µg/mL, an IC80 [3] greater than 50 µg/mL and an MPI [3] of 2. For the same substance, the IC50 [4] was 1.3 µg/mL, the IC80 [4] was 4.71 µg/mL and the MPI [4] was 97. The IC50 [5] was 3.89 µg/mL, the IC80 [5] was 48.8 µg/mL and the MPI [5] was 80. The IC50 [6] was 7 µg/mL, the IC80 [6] was greater than 50 µg/mL and the MPI [6] was 80. The IC50 [7] was 0.634 µg/mL, the IC80 [7] was 2.73 µg/mL and the MPI [7] was 100. For the same substance, the IC50 [8] was greater than 50 µg/mL, the IC80 [8] was greater than 50 µg/mL and the MPI [8] was 35.

With N49P9 (antibody) the IC50 [1] was 0.074 µg/mL, the IC80 [1] was 0.244 µg/mL and the MPI [1] was 100. It also gave an IC50 [2] of 0.072 µg/mL, an MPI [2] of 100 and an IC50 [3] greater than 50 µg/mL. For the same substance, the IC80 [3] was greater than 50 µg/mL, the MPI [3] was 20 and the IC50 [4] was 0.249 µg/mL. The IC80 [4] was 1.2 µg/mL, the MPI [4] was 99 and the IC50 [5] was 0.142 µg/mL. For the same substance, the IC80 [5] was 0.636 µg/mL, the MPI [5] was 100 and the IC50 [6] was 0.031 µg/mL. For the same substance, the IC80 [6] was 0.134 µg/mL, the MPI [6] was 100 and the IC50 [7] was 0.135 µg/mL. It also gave an IC80 [7] of 0.812 µg/mL, an MPI [7] of 100 and an IC50 [8] greater than 50 µg/mL. It also gave an IC80 [8] greater than 50 µg/mL and an MPI [8] of 25.

Work on N49P7.2 (antibody) yielded an IC50 [9] of 0.331 µg/mL, an IC80 [9] of 1.04 µg/mL and an MPI [9] of 100. For the same substance, the IC50 [10] was 3.94 µg/mL, the IC80 [10] was 21.7 µg/mL and the MPI [10] was 95. For the same substance, the IC50 [11] was 0.162 µg/mL, the IC80 [11] was 2.49 µg/mL and the MPI [11] was 95. For the same substance, the IC50 [12] was 0.03 µg/mL, the IC80 [12] was 0.088 µg/mL and the MPI [12] was 100. The IC50 [13] was 0.1 µg/mL, the IC80 [13] was 0.277 µg/mL and the MPI [13] was 100. The IC50 [14] was 0.137 µg/mL, the IC80 [14] was 0.368 µg/mL and the MPI [14] was 100. The IC50 [15] was greater than 50 µg/mL, the IC80 [15] was greater than 50 µg/mL and the MPI [15] was 6. For the same substance, the IC50 [16] was 0.398 µg/mL, the IC80 [16] was 1.29 µg/mL and the MPI [16] was 100. It also gave an IC50 [17] of 0.124 µg/mL, an IC80 [17] of 0.576 µg/mL and an MPI [17] of 100. The IC50 [18] was 0.29 µg/mL, the IC80 [18] was 1.08 µg/mL and the MPI [18] was 100. The IC50 [19] was 0.119 µg/mL, the IC80 [19] was 0.564 µg/mL and the MPI [19] was 100. For the same substance, the IC50 [20] was 6.29 µg/mL, the IC80 [20] was 33.3 µg/mL and the MPI [20] was 94. It also gave an IC50 [21] of 0.559 µg/mL, an IC80 [21] of 4.53 µg/mL and an MPI [21] of 100. For the same substance, the IC50 [22] was 0.177 µg/mL, the IC80 [22] was 2.5 µg/mL and the MPI [22] was 96. It also gave an IC50 [23] of 0.477 µg/mL, an IC80 [23] of 1.73 µg/mL and an MPI [23] of 100.

For N49P9.1 (antibody), the IC50 [1] was 0.067 µg/mL, the IC80 [1] was 0.237 µg/mL and the MPI [1] was 100. It also gave an IC50 [2] of 0.059 µg/mL, an IC80 [2] of 0.178 µg/mL and an MPI [2] of 100. It also gave an IC50 [3] greater than 50 µg/mL, an IC80 [3] greater than 50 µg/mL and an MPI [3] of 6. For the same substance, the IC50 [4] was 0.398 µg/mL, the IC80 [4] was 1.76 µg/mL and the MPI [4] was 97. For the same substance, the IC50 [5] was 0.189 µg/mL, the IC80 [5] was 0.947 µg/mL and the MPI [5] was 100. The IC50 [6] was 0.04 µg/mL, the IC80 [6] was 0.2 µg/mL and the MPI [6] was 100. The IC50 [7] was 0.469 µg/mL, the IC80 [7] was 1.62 µg/mL and the MPI [7] was 100. For the same substance, the IC50 [8] was greater than 50 µg/mL, the IC80 [8] was greater than 50 µg/mL and the MPI [8] was 5.
